The sequences below were run against c-Src SH2 (assay: SH2 binding enrichment of the phosphorylated peptide, bacterial display (enrichment ratio); higher = better substrate or ligand; peptides without Tyr show the background).
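Wherever SH2 binding enrichment of the phosphorylated peptide, bacterial display is given: peptide library displayed on the E. coli surface as eCPX fusions, selected cells deep-sequenced, score is each peptide's frequency after selection divided by its frequency in the input.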
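Wherever phosphorylation enrichment, bacterial display is given: 11-residue human phosphosite peptides and single-mutation variants displayed on the E. coli surface, counted by deep sequencing, each peptide's frequency after selection divided by its frequency in the unselected input library; frequency after pTyr selection over input frequency; kinase dosed for 20-30% of maximal phosphorylation in three min.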

Row | Sequence | SH2 binding enrichment
1 | LTEEKYELKEG [TREM1_Y29] | 0.494
2 | SAPPSYEETVA [LITAF_Y23] | 0.909
3 | SRIWVYNHFRW [BRCA2_Y2621_YF] | 1.12
4 | LLASGYDSPIN [ABLIM1_Y638_R637G] | 1.84
5 | THLARYSDELR [APOA1_Y190_P189R] | 0.554
6 | DDKEFYSVHNK [MET_Y1235_Y1230D_YF] | 0.486
7 | MFNPYYGLFEY [NEDD4L_Y680] | 1.75
8 | RWGQKYMTAVV [CYBA_Y72] | 0.948
9 | PLLEYYWDIFT [CDAN1_Y713_R714W] | 0.959
10 | KLFYIYTSGTT [SLC27A4_Y245] | 0.53
11 | ASKEPYFVHCI [MYO1D_Y585_R588H_YF] | 0.715
12 | TEYIQYMRRKN [MAX_Y73] | 0.473
13 | RRETPYGGGGG [FUS_Y526_R524T] | 0.477
14 | YHLLPYTVRAM [PARS2_Y93] | 5.37
15 | DVFLKHLNFAT [PDE6B_Y212_Y212H] | 0.52
16 | DVLEFCNSKKT [PAK1_Y131_Y131C] | 0.403

What follows are sequences tested against Grb2 SH2 (UniProt P62993) in the same assay as above.
Chain of Grb2 SH2 (P62993 whole entry, looked up): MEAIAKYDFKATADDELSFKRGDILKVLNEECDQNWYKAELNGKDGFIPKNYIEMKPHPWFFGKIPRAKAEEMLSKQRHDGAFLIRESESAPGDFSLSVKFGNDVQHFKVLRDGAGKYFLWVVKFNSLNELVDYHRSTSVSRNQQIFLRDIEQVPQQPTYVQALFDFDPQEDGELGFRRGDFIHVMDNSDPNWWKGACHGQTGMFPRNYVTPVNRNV

Row | Sequence | SH2 binding enrichment
17 | LTEEKYELKEG [TREM1_Y29] | 1.14
18 | SAPPSYEETVA [LITAF_Y23] | 0.761
19 | SRIWVYNHFRW [BRCA2_Y2621_YF] | 1.15
20 | LLASGYDSPIN [ABLIM1_Y638_R637G] | 0.615
21 | THLARYSDELR [APOA1_Y190_P189R] | 0.96
22 | DDKEFYSVHNK [MET_Y1235_Y1230D_YF] | 0.831
23 | MFNPYYGLFEY [NEDD4L_Y680] | 1.56
24 | RWGQKYMTAVV [CYBA_Y72] | 1.57
25 | PLLEYYWDIFT [CDAN1_Y713_R714W] | 1.25
26 | KLFYIYTSGTT [SLC27A4_Y245] | 0.943
27 | ASKEPYFVHCI [MYO1D_Y585_R588H_YF] | 0.982
28 | TEYIQYMRRKN [MAX_Y73] | 0.462
29 | RRETPYGGGGG [FUS_Y526_R524T] | 0.685
30 | YHLLPYTVRAM [PARS2_Y93] | 1.15
31 | DVFLKHLNFAT [PDE6B_Y212_Y212H] | 0.842
32 | DVLEFCNSKKT [PAK1_Y131_Y131C] | 1

The sequences below were run against SHP2-C SH2 in the same assay as above.

Row | Sequence | SH2 binding enrichment
33 | LTEEKYELKEG [TREM1_Y29] | 0.639
34 | SAPPSYEETVA [LITAF_Y23] | 0.975
35 | SRIWVYNHFRW [BRCA2_Y2621_YF] | 1.37
36 | LLASGYDSPIN [ABLIM1_Y638_R637G] | 0.653
37 | THLARYSDELR [APOA1_Y190_P189R] | 0.622
38 | DDKEFYSVHNK [MET_Y1235_Y1230D_YF] | 0.621
39 | MFNPYYGLFEY [NEDD4L_Y680] | 1.64
40 | RWGQKYMTAVV [CYBA_Y72] | 0.698
41 | PLLEYYWDIFT [CDAN1_Y713_R714W] | 1.25
42 | KLFYIYTSGTT [SLC27A4_Y245] | 1.34
43 | ASKEPYFVHCI [MYO1D_Y585_R588H_YF] | 0.886
44 | TEYIQYMRRKN [MAX_Y73] | 0.737
45 | RRETPYGGGGG [FUS_Y526_R524T] | 0.54
46 | YHLLPYTVRAM [PARS2_Y93] | 1.81
47 | DVFLKHLNFAT [PDE6B_Y212_Y212H] | 0.884
48 | DVLEFCNSKKT [PAK1_Y131_Y131C] | 0.693

What follows are sequences tested against EPHB1 (UniProt P54762) (assay: phosphorylation enrichment, bacterial display (enrichment ratio); higher = better substrate or ligand; peptides without Tyr show the background).
Chain of EPHB1 (P54762 whole entry, looked up): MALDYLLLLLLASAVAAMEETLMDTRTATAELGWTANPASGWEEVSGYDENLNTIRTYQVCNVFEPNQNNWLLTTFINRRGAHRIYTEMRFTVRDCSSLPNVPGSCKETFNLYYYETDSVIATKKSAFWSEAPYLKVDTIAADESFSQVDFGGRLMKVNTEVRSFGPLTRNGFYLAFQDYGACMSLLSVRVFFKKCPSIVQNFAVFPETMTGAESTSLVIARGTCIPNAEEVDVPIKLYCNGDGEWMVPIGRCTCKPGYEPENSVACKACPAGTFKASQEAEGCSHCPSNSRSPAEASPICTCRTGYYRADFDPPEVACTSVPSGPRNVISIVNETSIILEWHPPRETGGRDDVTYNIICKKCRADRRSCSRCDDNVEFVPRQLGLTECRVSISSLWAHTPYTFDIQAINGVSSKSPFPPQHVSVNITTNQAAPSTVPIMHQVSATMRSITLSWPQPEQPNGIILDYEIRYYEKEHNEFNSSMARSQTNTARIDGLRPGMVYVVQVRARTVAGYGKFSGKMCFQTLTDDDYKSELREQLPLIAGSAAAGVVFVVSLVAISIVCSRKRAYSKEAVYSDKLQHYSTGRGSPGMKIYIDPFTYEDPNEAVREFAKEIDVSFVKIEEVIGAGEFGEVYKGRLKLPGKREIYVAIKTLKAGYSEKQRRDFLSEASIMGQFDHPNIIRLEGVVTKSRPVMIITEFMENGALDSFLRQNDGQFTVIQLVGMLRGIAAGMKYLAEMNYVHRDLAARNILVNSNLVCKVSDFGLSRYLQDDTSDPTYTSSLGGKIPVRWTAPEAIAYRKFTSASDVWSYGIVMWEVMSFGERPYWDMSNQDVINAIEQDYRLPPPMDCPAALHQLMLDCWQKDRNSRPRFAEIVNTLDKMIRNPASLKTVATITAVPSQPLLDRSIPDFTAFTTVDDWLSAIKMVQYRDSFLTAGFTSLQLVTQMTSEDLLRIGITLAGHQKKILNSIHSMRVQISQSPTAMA

Row | Sequence | phosphorylation enrichment
49 | LTEEKYELKEG [TREM1_Y29] | 0.977
50 | SAPPSYEETVA [LITAF_Y23] | 0.6
51 | SRIWVYNHFRW [BRCA2_Y2621_YF] | 0.597
52 | LLASGYDSPIN [ABLIM1_Y638_R637G] | 0.764
53 | THLARYSDELR [APOA1_Y190_P189R] | 0.32
54 | DDKEFYSVHNK [MET_Y1235_Y1230D_YF] | 0.488
55 | MFNPYYGLFEY [NEDD4L_Y680] | 7.89
56 | RWGQKYMTAVV [CYBA_Y72] | 0.494
57 | PLLEYYWDIFT [CDAN1_Y713_R714W] | 2.64
58 | KLFYIYTSGTT [SLC27A4_Y245] | 0.61
59 | ASKEPYFVHCI [MYO1D_Y585_R588H_YF] | 1.05
60 | TEYIQYMRRKN [MAX_Y73] | 0.404
61 | RRETPYGGGGG [FUS_Y526_R524T] | 0.568
62 | YHLLPYTVRAM [PARS2_Y93] | 2.32
63 | DVFLKHLNFAT [PDE6B_Y212_Y212H] | 0.547
64 | DVLEFCNSKKT [PAK1_Y131_Y131C] | 0.459

Each sequence was assayed against Fyn (UniProt P06241) in the same assay as above.
Chain of Fyn (P06241 whole entry, looked up): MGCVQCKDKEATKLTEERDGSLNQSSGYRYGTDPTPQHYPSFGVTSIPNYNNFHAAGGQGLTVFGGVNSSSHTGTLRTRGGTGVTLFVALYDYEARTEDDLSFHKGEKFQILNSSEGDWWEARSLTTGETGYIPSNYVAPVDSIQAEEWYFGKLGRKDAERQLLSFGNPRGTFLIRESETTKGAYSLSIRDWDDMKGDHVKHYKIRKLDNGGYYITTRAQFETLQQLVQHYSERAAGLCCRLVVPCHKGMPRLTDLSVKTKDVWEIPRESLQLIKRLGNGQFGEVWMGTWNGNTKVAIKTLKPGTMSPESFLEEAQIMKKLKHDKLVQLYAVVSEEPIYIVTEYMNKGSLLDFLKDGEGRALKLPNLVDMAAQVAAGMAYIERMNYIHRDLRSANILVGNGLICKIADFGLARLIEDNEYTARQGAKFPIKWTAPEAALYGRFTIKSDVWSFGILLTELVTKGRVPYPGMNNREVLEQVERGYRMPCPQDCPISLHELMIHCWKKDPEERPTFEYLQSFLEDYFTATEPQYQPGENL

Row | Sequence | phosphorylation enrichment
65 | LTEEKYELKEG [TREM1_Y29] | 0.698
66 | SAPPSYEETVA [LITAF_Y23] | 0.645
67 | SRIWVYNHFRW [BRCA2_Y2621_YF] | 0.423
68 | LLASGYDSPIN [ABLIM1_Y638_R637G] | 0.529
69 | THLARYSDELR [APOA1_Y190_P189R] | 0.539
70 | DDKEFYSVHNK [MET_Y1235_Y1230D_YF] | 0.413
71 | MFNPYYGLFEY [NEDD4L_Y680] | 7.66
72 | RWGQKYMTAVV [CYBA_Y72] | 0.488
73 | PLLEYYWDIFT [CDAN1_Y713_R714W] | 1.32
74 | KLFYIYTSGTT [SLC27A4_Y245] | 0.455
75 | ASKEPYFVHCI [MYO1D_Y585_R588H_YF] | 0.503
76 | TEYIQYMRRKN [MAX_Y73] | 0.468
77 | RRETPYGGGGG [FUS_Y526_R524T] | 0.718
78 | YHLLPYTVRAM [PARS2_Y93] | 3.04
79 | DVFLKHLNFAT [PDE6B_Y212_Y212H] | 0.507
80 | DVLEFCNSKKT [PAK1_Y131_Y131C] | 0.423

These sequences were tested against MERTK (UniProt Q12866) in the same assay as above.
Chain of MERTK (Q12866 whole entry, looked up): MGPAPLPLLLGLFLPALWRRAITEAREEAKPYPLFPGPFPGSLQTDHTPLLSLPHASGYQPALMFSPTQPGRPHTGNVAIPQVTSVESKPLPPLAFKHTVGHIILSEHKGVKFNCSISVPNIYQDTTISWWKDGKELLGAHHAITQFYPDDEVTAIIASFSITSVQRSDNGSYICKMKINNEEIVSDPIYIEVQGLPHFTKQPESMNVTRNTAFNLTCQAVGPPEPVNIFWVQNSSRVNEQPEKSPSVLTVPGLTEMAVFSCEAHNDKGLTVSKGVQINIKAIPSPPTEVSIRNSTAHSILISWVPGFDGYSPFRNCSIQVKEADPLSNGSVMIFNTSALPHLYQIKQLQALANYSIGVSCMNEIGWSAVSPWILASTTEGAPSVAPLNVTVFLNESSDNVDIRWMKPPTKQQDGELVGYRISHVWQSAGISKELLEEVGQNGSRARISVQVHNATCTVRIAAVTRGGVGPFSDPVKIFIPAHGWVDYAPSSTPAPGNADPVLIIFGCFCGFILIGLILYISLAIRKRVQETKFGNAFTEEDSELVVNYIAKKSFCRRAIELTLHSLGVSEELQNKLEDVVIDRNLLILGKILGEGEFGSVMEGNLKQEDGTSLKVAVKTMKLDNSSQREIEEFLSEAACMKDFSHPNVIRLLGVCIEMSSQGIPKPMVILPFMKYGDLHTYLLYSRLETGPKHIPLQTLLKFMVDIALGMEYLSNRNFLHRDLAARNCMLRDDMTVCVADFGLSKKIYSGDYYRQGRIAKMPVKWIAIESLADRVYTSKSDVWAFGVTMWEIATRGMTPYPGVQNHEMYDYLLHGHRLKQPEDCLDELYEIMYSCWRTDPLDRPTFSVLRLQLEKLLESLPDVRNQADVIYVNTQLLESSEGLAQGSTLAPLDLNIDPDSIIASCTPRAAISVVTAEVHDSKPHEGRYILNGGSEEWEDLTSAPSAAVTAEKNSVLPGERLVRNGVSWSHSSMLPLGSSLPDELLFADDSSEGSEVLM

Row | Sequence | phosphorylation enrichment
81 | LTEEKYELKEG [TREM1_Y29] | 0.705
82 | SAPPSYEETVA [LITAF_Y23] | 0.414
83 | SRIWVYNHFRW [BRCA2_Y2621_YF] | 0.44
84 | LLASGYDSPIN [ABLIM1_Y638_R637G] | 0.52
85 | THLARYSDELR [APOA1_Y190_P189R] | 0.494
86 | DDKEFYSVHNK [MET_Y1235_Y1230D_YF] | 0.422
87 | MFNPYYGLFEY [NEDD4L_Y680] | 7.1
88 | RWGQKYMTAVV [CYBA_Y72] | 0.452
89 | PLLEYYWDIFT [CDAN1_Y713_R714W] | 1.02
90 | KLFYIYTSGTT [SLC27A4_Y245] | 0.5
91 | ASKEPYFVHCI [MYO1D_Y585_R588H_YF] | 0.427
92 | TEYIQYMRRKN [MAX_Y73] | 0.545
93 | RRETPYGGGGG [FUS_Y526_R524T] | 0.721
94 | YHLLPYTVRAM [PARS2_Y93] | 9.72
95 | DVFLKHLNFAT [PDE6B_Y212_Y212H] | 0.466
96 | DVLEFCNSKKT [PAK1_Y131_Y131C] | 0.433

Each sequence was assayed on AncSZ in the same assay as above.

Row | Sequence | phosphorylation enrichment
97 | LTEEKYELKEG [TREM1_Y29] | 2.36
98 | SAPPSYEETVA [LITAF_Y23] | 1.1
99 | SRIWVYNHFRW [BRCA2_Y2621_YF] | 1.15
100 | LLASGYDSPIN [ABLIM1_Y638_R637G] | 1.33
101 | THLARYSDELR [APOA1_Y190_P189R] | 0.653
102 | DDKEFYSVHNK [MET_Y1235_Y1230D_YF] | 0.882
103 | MFNPYYGLFEY [NEDD4L_Y680] | 2.18
104 | RWGQKYMTAVV [CYBA_Y72] | 0.731
105 | PLLEYYWDIFT [CDAN1_Y713_R714W] | 2.64
106 | KLFYIYTSGTT [SLC27A4_Y245] | 1.24
107 | ASKEPYFVHCI [MYO1D_Y585_R588H_YF] | 0.846
108 | TEYIQYMRRKN [MAX_Y73] | 0.734
109 | RRETPYGGGGG [FUS_Y526_R524T] | 0.769
110 | YHLLPYTVRAM [PARS2_Y93] | 1.28
111 | DVFLKHLNFAT [PDE6B_Y212_Y212H] | 0.785
112 | DVLEFCNSKKT [PAK1_Y131_Y131C] | 0.83

The sequences below were run against Fes (UniProt P07332) in the same assay as above.
Chain of Fes (P07332 whole entry, looked up): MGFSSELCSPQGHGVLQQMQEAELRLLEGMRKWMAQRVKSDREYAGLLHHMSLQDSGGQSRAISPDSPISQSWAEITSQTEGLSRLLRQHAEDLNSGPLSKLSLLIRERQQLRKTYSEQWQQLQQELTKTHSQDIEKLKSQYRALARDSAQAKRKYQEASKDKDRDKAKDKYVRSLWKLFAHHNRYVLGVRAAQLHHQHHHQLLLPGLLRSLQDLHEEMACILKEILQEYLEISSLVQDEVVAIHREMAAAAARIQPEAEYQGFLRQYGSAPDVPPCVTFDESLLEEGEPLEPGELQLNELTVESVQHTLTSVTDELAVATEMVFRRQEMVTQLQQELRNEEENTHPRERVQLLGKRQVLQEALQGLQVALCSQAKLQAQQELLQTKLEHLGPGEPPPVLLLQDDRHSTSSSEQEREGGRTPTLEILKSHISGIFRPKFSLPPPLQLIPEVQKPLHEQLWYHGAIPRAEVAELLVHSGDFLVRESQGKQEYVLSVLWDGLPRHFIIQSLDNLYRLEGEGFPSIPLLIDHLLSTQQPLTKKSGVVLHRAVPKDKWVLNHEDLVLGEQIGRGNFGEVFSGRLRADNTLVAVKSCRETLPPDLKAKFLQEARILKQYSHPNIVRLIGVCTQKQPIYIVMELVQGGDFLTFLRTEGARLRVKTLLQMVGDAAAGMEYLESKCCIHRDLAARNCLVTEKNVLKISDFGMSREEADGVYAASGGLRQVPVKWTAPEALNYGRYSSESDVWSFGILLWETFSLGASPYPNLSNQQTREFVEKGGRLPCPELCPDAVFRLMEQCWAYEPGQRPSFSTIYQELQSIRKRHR

Row | Sequence | phosphorylation enrichment
113 | LTEEKYELKEG [TREM1_Y29] | 1.41
114 | SAPPSYEETVA [LITAF_Y23] | 1.09
115 | SRIWVYNHFRW [BRCA2_Y2621_YF] | 1.29
116 | LLASGYDSPIN [ABLIM1_Y638_R637G] | 1.28
117 | THLARYSDELR [APOA1_Y190_P189R] | 0.645
118 | DDKEFYSVHNK [MET_Y1235_Y1230D_YF] | 0.99
119 | MFNPYYGLFEY [NEDD4L_Y680] | 2.16
120 | RWGQKYMTAVV [CYBA_Y72] | 0.665
121 | PLLEYYWDIFT [CDAN1_Y713_R714W] | 2.27
122 | KLFYIYTSGTT [SLC27A4_Y245] | 1.37
123 | ASKEPYFVHCI [MYO1D_Y585_R588H_YF] | 0.881
124 | TEYIQYMRRKN [MAX_Y73] | 0.615
125 | RRETPYGGGGG [FUS_Y526_R524T] | 0.68
126 | YHLLPYTVRAM [PARS2_Y93] | 0.913
127 | DVFLKHLNFAT [PDE6B_Y212_Y212H] | 0.914
128 | DVLEFCNSKKT [PAK1_Y131_Y131C] | 0.861
